In the Immune Epitope Database (IEDB):

Tests used:
Test in all cases: IEDB peptide-MHC binding, purified MHC/competitive/radioactivity; ≥ and ≤ were set here for values at or beyond the usual limits of such assays
HLA-A*02:01 = molecular target: HLA-A*02:01
HLA-A*02:02 = molecular target: HLA-A*02:02
HLA-A*02:03 = molecular target: HLA-A*02:03
HLA-A*02:06 = molecular target: HLA-A*02:06
HLA-A*68:02 = molecular target: HLA-A*68:02
[1] = source organism: Vaccinia virus WR
[2] = source organism: Hepacivirus hominis
[3] = source organism: Influenza A virus

Sequence	IC50 (HLA-A*02:01; [1])	IC50 (HLA-A*02:02; [1])	IC50 (HLA-A*02:03; [1])	IC50 (HLA-A*02:06; [1])	IC50 (HLA-A*68:02; [1])	other results
STYPGNTFV	64 nM	11 nM	0.19 nM	0.46 nM	0.24 nM	
NVFISPASI	136 nM	202 nM	0.73 nM	660 nM	1.9 nM	
ITYCLVTHM	3100 nM	1280 nM	2330 nM	1410 nM	1730 nM	
AIAACAMLLV						IC50 (HLA-A*02:01; source organism: SARS-CoV1): 36 nM; IC50 (HLA-A*02:02; source organism: SARS-CoV1): 5.9 nM; IC50 (HLA-A*02:03; source organism: SARS-CoV1): 32 nM; IC50 (HLA-A*02:06; source organism: SARS-CoV1): 78 nM; IC50 (HLA-A*68:02; source organism: SARS-CoV1): 1430 nM
ALVCYIVMPV						IC50 (HLA-A*02:01; source organism: SARS-CoV1): 5.6 nM; IC50 (HLA-A*02:02; source organism: SARS-CoV1): 1.2 nM; IC50 (HLA-A*02:03; source organism: SARS-CoV1): 4.4 nM; IC50 (HLA-A*02:06; source organism: SARS-CoV1): 2.9 nM; IC50 (HLA-A*68:02; source organism: SARS-CoV1): 88 nM
LAISAVYFKA	770 nM	1430 nM	363 nM	659 nM	802 nM	
KLLYAAEMV	48 nM	58 nM	54 nM	18 nM	2810 nM	
YTLLGCWSFV						IC50 (HLA-A*02:01; [2]): 435 nM; IC50 (HLA-A*02:02; [2]): 555 nM; IC50 (HLA-A*02:03; [2]): 169 nM; IC50 (HLA-A*02:06; [2]): 146 nM; IC50 (HLA-A*68:02; [2]): 182 nM
STSPTRTWKV	741 nM	397 nM	717 nM	504 nM	131 nM	
MAGVEVRYI	2310 nM	293 nM	201 nM	2050 nM	583 nM	
ILFILFFAYV	139 nM	132 nM	366 nM	1210 nM	320 nM	
TINVNSLAL	1530 nM	1980 nM	1540 nM	2180 nM	1530 nM	
MVDVSMMSM	200 nM	559 nM	1160 nM	101 nM	519 nM	
WISDNTHIYL	12 nM	0.14 nM	1.2 nM	1.8 nM	4.8 nM	
VIKLVKSLV	881 nM	1030 nM	126 nM	4120 nM	640 nM	
NVMGMIGV						IC50 (HLA-A*02:01; [3]): 1460 nM; IC50 (HLA-A*02:02; [3]): 1980 nM; IC50 (HLA-A*02:03; [3]): 512 nM; IC50 (HLA-A*02:06; [3]): 1250 nM; IC50 (HLA-A*68:02; [3]): 98 nM
LIQDWIPPL						IC50 (HLA-A*02:01; [2]): 97 nM; IC50 (HLA-A*02:02; [2]): 110 nM; IC50 (HLA-A*02:03; [2]): 177 nM; IC50 (HLA-A*02:06; [2]): 54 nM; IC50 (HLA-A*68:02; [2]): 1420 nM

Sequence	IC50 (HLA-A*02:01; [1])	IC50 (HLA-A*02:02; [1])	IC50 (HLA-A*02:03; [1])	IC50 (HLA-A*02:06; [1])	IC50 (HLA-A*68:02; [1])	other results
QLMYDIINSV	0.78 nM	1.9 nM	0.14 nM	5.6 nM	165 nM	
SVKNLILNFL	2210 nM	1040 nM	163 nM	551 nM	130 nM	
RIITILQDI	146 nM	583 nM	5.6 nM	2 nM	1490 nM	
LMSFTILCL						IC50 (HLA-A*02:01; source organism: SARS-CoV1): 0.14 nM; IC50 (HLA-A*02:02; source organism: SARS-CoV1): 0.27 nM; IC50 (HLA-A*02:03; source organism: SARS-CoV1): 16 nM; IC50 (HLA-A*02:06; source organism: SARS-CoV1): 1.8 nM; IC50 (HLA-A*68:02; source organism: SARS-CoV1): 709 nM
WSYNAELLVA						IC50 (HLA-A*02:01; [3]): 256 nM; IC50 (HLA-A*02:02; [3]): 242 nM; IC50 (HLA-A*02:03; [3]): 14 nM; IC50 (HLA-A*02:06; [3]): 15 nM; IC50 (HLA-A*68:02; [3]): 1620 nM
FVVFLLVTL						IC50 (HLA-A*02:01; source organism: SARS-CoV1): 839 nM; IC50 (HLA-A*02:02; source organism: SARS-CoV1): 217 nM; IC50 (HLA-A*02:03; source organism: SARS-CoV1): 1640 nM; IC50 (HLA-A*02:06; source organism: SARS-CoV1): 38 nM; IC50 (HLA-A*68:02; source organism: SARS-CoV1): 120 nM
ALMIAAQVVV						IC50 (HLA-A*02:01; [2]): 129 nM; IC50 (HLA-A*02:02; [2]): 50 nM; IC50 (HLA-A*02:03; [2]): 71 nM; IC50 (HLA-A*02:06; [2]): 614 nM; IC50 (HLA-A*68:02; [2]): 1420 nM
LLFLVLIML						IC50 (HLA-A*02:01; source organism: SARS-CoV1): 294 nM; IC50 (HLA-A*02:02; source organism: SARS-CoV1): 154 nM; IC50 (HLA-A*02:03; source organism: SARS-CoV1): 1370 nM; IC50 (HLA-A*02:06; source organism: SARS-CoV1): 573 nM; IC50 (HLA-A*68:02; source organism: SARS-CoV1): 1250 nM
TLLGCWSFV						IC50 (HLA-A*02:01; [2]): 30 nM; IC50 (HLA-A*02:02; [2]): 87 nM; IC50 (HLA-A*02:03; [2]): 41 nM; IC50 (HLA-A*02:06; [2]): 134 nM; IC50 (HLA-A*68:02; [2]): 1780 nM
LISLINSLV	15 nM	0.48 nM	0.48 nM	72 nM	68 nM	
MVLMTHFFSV						IC50 (HLA-A*02:01; [2]): 146 nM; IC50 (HLA-A*02:02; [2]): 808 nM; IC50 (HLA-A*02:03; [2]): 174 nM; IC50 (HLA-A*02:06; [2]): 15 nM; IC50 (HLA-A*68:02; [2]): 13 nM
CLDAGINYV						IC50 (HLA-A*02:01; source organism: SARS-CoV1): 0.91 nM; IC50 (HLA-A*02:02; source organism: SARS-CoV1): 0.57 nM; IC50 (HLA-A*02:03; source organism: SARS-CoV1): 6.4 nM; IC50 (HLA-A*02:06; source organism: SARS-CoV1): 1.6 nM; IC50 (HLA-A*68:02; source organism: SARS-CoV1): 79 nM
SLSNLDFRL	2880 nM	1310 nM	1760 nM	1380 nM	23 nM	
YLRLYIILA	190 nM	8.3 nM	52 nM	4180 nM	2720 nM	
VIIMAINVFT	641 nM	320 nM	820 nM	674 nM	740 nM	
FLIVAALVFL						IC50 (HLA-A*02:01; source organism: SARS-CoV1): 11 nM; IC50 (HLA-A*02:02; source organism: SARS-CoV1): 3 nM; IC50 (HLA-A*02:03; source organism: SARS-CoV1): 162 nM; IC50 (HLA-A*02:06; source organism: SARS-CoV1): 3.6 nM; IC50 (HLA-A*68:02; source organism: SARS-CoV1): 1090 nM
KVTGSYNLV	754 nM	66 nM	43 nM	193 nM	538 nM	
